{"source": "patent US20220002395A1", "about": "(FAPON BIOTECH, published 2022)", "molecular_target": "T1, Plasmodium falciparum histidine-rich protein II (HRP-II) (Plasmodium falciparum, UniProt P05227 22-332)", "T1 construct": "Coating antigen of all ELISAs; also called HRP-II protein; MA-HRPII Ag protein", "T1 sequence (looked up)": "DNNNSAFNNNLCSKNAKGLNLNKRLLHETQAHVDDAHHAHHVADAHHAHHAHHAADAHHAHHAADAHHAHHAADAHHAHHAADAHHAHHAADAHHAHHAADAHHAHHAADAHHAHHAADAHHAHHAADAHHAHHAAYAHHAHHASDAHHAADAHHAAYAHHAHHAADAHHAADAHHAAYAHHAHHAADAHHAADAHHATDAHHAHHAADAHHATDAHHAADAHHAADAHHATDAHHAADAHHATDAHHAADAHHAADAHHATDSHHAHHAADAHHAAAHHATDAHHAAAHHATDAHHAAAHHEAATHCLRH", "assay": "indirect ELISA, four antigen coating concentrations;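 note: optical density read across an antibody dilution series at each antigen coating level, curves plotted on log scale, KD derived as reciprocal of the averaged constant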", "method": "The OD values corresponding to different antibody concentrations with different coating concentrations are obtained. Under the same coating concentration, the antibody concentrations are used as an abscissa, the 00 values are used as an ordinate, and a logarithmic plot is made. […] An average value thereof is taken and a reciprocal thereof is calculated to get the affinity constant KD."}
{"binder": "Mutation 1-3 (antibody, mouse IgG2b, kappa, V domains shown, Mutation 1 as framework) VH: EVQLQQSGPEVVKPGASVKISCKASGYTITDYYMNWVKQSHGKGLEWIGDLNPINGGTAYQQKFRDKATLTVDKSSNTAYMELRSLTSEDSALYYCTRGAEDYWGQGTTLTVSS VL: DVVLTQTPLSLSVTIGQPASISCKSSQSIIYSNGKIYLNWFQQRPGQSPKRLMYQLSKLEPGIPDRFSGSGSETDFTLKISRVEAEDLGVYYCLQGTYSPQTFGGGTKLEIKR", "values": [{"measurement": "Kd", "value": 0.362, "unit": "nM"}]}
{"binder": "Mutation 1-9 (antibody, mouse IgG2b, kappa, V domains shown, Mutation 1 as framework) VH: EVQLQQSGPEVVKPGASVKISCKASGYTLTDYYMNWVKQSHGKGLEWIGDLNPIQGGTAYNQKFRDKATLTVDKSSNTAYMELRSLTSEDSALYYCTRGAEDYWGQGTTLTVSS VL: DVVLTQTPLSLSVTIGQPASISCKSSQSIIYSQGKIYLNWFQQRPGQSPKRLMYQLSKLEPGIPDRFSGSGSETDFTLKISRVEAEDLGVYYCLQGTYSPQTFGGGTKLEIKR", "values": [{"measurement": "Kd", "value": 0.0645, "unit": "nM"}]}
{"binder": "Mutation 1-12 (antibody, mouse IgG2b, kappa, V domains shown, Mutation 1 as framework) VH: EVQLQQSGPEVVKPGASVKISCKASGYTITDYYMNWVKQSHGKGLEWIGDLNPINGGTAYNQKFRDKATLTVDKSSNTAYMELRSLTSEDSALYYCTRGAEDYWGQGTTLTVSS VL: DVVLTQTPLSLSVTIGQPASISCKSSQSILYSNGKIYLNWFQQRPGQSPKRLMYQISKLDPGIPDRFSGSGSETDFTLKISRVEAEDLGVYYCLQGTYSPQTFGGGTKLEIKR", "values": [{"measurement": "Kd", "value": 0.126, "unit": "nM"}]}
{"binder": "Mutation 1-24 (antibody, mouse IgG2b, kappa, V domains shown, Mutation 1 as framework) VH: EVQLQQSGPEVVKPGASVKISCKASGTTLTDYYMNWVKQSHGKGLEWIGDLNPIQGGTAYQQKFRDKATLTVDKSSNTAYMELRSLTSEDSALYYCTKGAEDYWGQGTTLTVSS VL: DVVLTQTPLSLSVTIGQPASISCKSSQSIIYSNGKIYLNWFQQRPGQSPKRLMYQISKLDPGIPDRFSGSGSETDFTLKISRVEAEDLGVYYCLQATYSPQTFGGGTKLEIKR", "values": [{"measurement": "Kd", "value": 0.127, "unit": "nM"}]}
{"binder": "Mutation 1-27 (antibody, mouse IgG2b, kappa, V domains shown, Mutation 1 as framework) VH: EVQLQQSGPEVVKPGASVKISCKASGTTLTDYYMNWVKQSHGKGLEWIGDLNPINGGTAYQQKFRDKATLTVDKSSNTAYMELRSLTSEDSALYYCTKGAEDYWGQGTTLTVSS VL: DVVLTQTPLSLSVTIGQPASISCKSSQSIIYSNGKIYLNWFQQRPGQSPKRLMYQLSKLEPGIPDRFSGSGSETDFTLKISRVEAEDLGVYYCLQGTYSPQTFGGGTKLEIKR", "values": [{"measurement": "Kd", "value": 0.165, "unit": "nM"}]}
{"binder": "Mutation 1-30 (antibody, mouse IgG2b, kappa, V domains shown, Mutation 1 as framework) VH: EVQLQQSGPEVVKPGASVKISCKASGSTLTDYYMNWVKQSHGKGLEWIGDLNPIQGGTAYNQKFRDKATLTVDKSSNTAYMELRSLTSEDSALYYCTKGAEDYWGQGTTLTVSS VL: DVVLTQTPLSLSVTIGQPASISCKSSQSIIYSNGKIYLNWFQQRPGQSPKRLMYQISKLDPGIPDRFSGSGSETDFTLKISRVEAEDLGVYYCLQATYSPQTFGGGTKLEIKR", "values": [{"measurement": "Kd", "value": 0.233, "unit": "nM"}]}
{"binder": "Mutation 1-34 (antibody, mouse IgG2b, kappa, V domains shown, Mutation 1 as framework) VH: EVQLQQSGPEVVKPGASVKISCKASGTTLTDYYMNWVKQSHGKGLEWIGDINPINGGTAYQQKFRDKATLTVDKSSNTAYMELRSLTSEDSALYYCTRGAEDYWGQGTTLTVSS VL: DVVLTQTPLSLSVTIGQPASISCKSSQSLLYSNGKIYLNWFQQRPGQSPKRLMYQVSKLDPGIPDRFSGSGSETDFTLKISRVEAEDLGVYYCLQGTYTPQTFGGGTKLEIKR", "values": [{"measurement": "Kd", "value": 0.184, "unit": "nM"}]}
{"binder": "Mutation 1-36 (antibody, mouse IgG2b, kappa, V domains shown, Mutation 1 as framework) VH: EVQLQQSGPEVVKPGASVKISCKASGTTLTDYYMNWVKQSHGKGLEWIGDLNPIQGGTAYNQKFRDKATLTVDKSSNTAYMELRSLTSEDSALYYCTRGAEDYWGQGTTLTVSS VL: DVVLTQTPLSLSVTIGQPASISCKSSQSLLYSNGKIYLNWFQQRPGQSPKRLMYQISKLDPGIPDRFSGSGSETDFTLKISRVEAEDLGVYYCLQGTYSPQTFGGGTKLEIKR", "values": [{"measurement": "Kd", "value": 0.473, "unit": "nM"}]}
{"binder": "Mutation 1-38 (antibody, mouse IgG2b, kappa, V domains shown, Mutation 1 as framework) VH: EVQLQQSGPEVVKPGASVKISCKASGTTLTDYYMNWVKQSHGKGLEWIGDVNPIQGGTAYQQKFRDKATLTVDKSSNTAYMELRSLTSEDSALYYCTRGAEDYWGQGTTLTVSS VL: DVVLTQTPLSLSVTIGQPASISCKSSQSLLYSNGKIYLNWFQQRPGQSPKRLMYQLSKLDPGIPDRFSGSGSETDFTLKISRVEAEDLGVYYCLQGTYSPQTFGGGTKLEIKR", "values": [{"measurement": "Kd", "value": 0.0883, "unit": "nM"}]}
{"binder": "Mutation 1-40 (antibody, mouse IgG2b, kappa, V domains shown, Mutation 1 as framework) VH: EVQLQQSGPEVVKPGASVKISCKASGTTLTDYYMNWVKQSHGKGLEWIGDINPINGGTAYQQKFRDKATLTVDKSSNTAYMELRSLTSEDSALYYCTRGAEDYWGQGTTLTVSS VL: DVVLTQTPLSLSVTIGQPASISCKSSQSILYSNGKIYLNWFQQRPGQSPKRLMYQLSKLDPGIPDRFSGSGSETDFTLKISRVEAEDLGVYYCLQGTYTPQTFGGGTKLEIKR", "values": [{"measurement": "Kd", "value": 0.083, "unit": "nM"}]}
{"binder": "Mutation 1-42 (antibody, mouse IgG2b, kappa, V domains shown, Mutation 1 as framework) VH: EVQLQQSGPEVVKPGASVKISCKASGYTITDYYMNWVKQSHGKGLEWIGDLNPINGGTAYQQKFRDKATLTVDKSSNTAYMELRSLTSEDSALYYCTRGAEDYWGQGTTLTVSS VL: DVVLTQTPLSLSVTIGQPASISCKSSQSILYSNGKIYLNWFQQRPGQSPKRLMYQISKLDPGIPDRFSGSGSETDFTLKISRVEAEDLGVYYCLQGTYSPQTFGGGTKLEIKR", "values": [{"measurement": "Kd", "value": 0.0643, "unit": "nM"}]}
{"binder": "Mutation 1-43 (antibody, mouse IgG2b, kappa, V domains shown, Mutation 1 as framework) VH: EVQLQQSGPEVVKPGASVKISCKASGTTLTDYYMNWVKQSHGKGLEWIGDINPINGGTAYQQKFRDKATLTVDKSSNTAYMELRSLTSEDSALYYCTKGAEDYWGQGTTLTVSS VL: DVVLTQTPLSLSVTIGQPASISCKSSQSILYSNGKIYLNWFQQRPGQSPKRLMYQISKLEPGIPDRFSGSGSETDFTLKISRVEAEDLGVYYCLQGTYSPQTFGGGTKLEIKR", "values": [{"measurement": "Kd", "value": 0.124, "unit": "nM"}]}
{"binder": "Mutation 1-44 (antibody, mouse IgG2b, kappa, V domains shown, Mutation 1 as framework) VH: EVQLQQSGPEVVKPGASVKISCKASGYTITDYYMNWVKQSHGKGLEWIGDVNPINGGTAYQQKFRDKATLTVDKSSNTAYMELRSLTSEDSALYYCTRGAEDYWGQGTTLTVSS VL: DVVLTQTPLSLSVTIGQPASISCKSSQSILYSNGKIYLNWFQQRPGQSPKRLMYQLSKLDPGIPDRFSGSGSETDFTLKISRVEAEDLGVYYCLQATYSPQTFGGGTKLEIKR", "values": [{"measurement": "Kd", "value": 0.105, "unit": "nM"}]}
{"binder": "Mutation 1-51 (antibody, mouse IgG2b, kappa, V domains shown, Mutation 1 as framework) VH: EVQLQQSGPEVVKPGASVKISCKASGSTLTDYYMNWVKQSHGKGLEWIGDLNPINGGTAYQQKFRDKATLTVDKSSNTAYMELRSLTSEDSALYYCTKGAEDYWGQGTTLTVSS VL: DVVLTQTPLSLSVTIGQPASISCKSSQSLLYSNGKIYLNWFQQRPGQSPKRLMYQLSKLEPGIPDRFSGSGSETDFTLKISRVEAEDLGVYYCLQGTYYPQTFGGGTKLEIKR", "values": [{"measurement": "Kd", "value": 0.179, "unit": "nM"}]}
{"binder": "Mutation 1-52 (antibody, mouse IgG2b, kappa, V domains shown, Mutation 1 as framework) VH: EVQLQQSGPEVVKPGASVKISCKASGTTLTDYYMNWVKQSHGKGLEWIGDINPIQGGTAYQQKFRDKATLTVDKSSNTAYMELRSLTSEDSALYYCTRGAEDYWGQGTTLTVSS VL: DVVLTQTPLSLSVTIGQPASISCKSSQSIIYSNGKIYLNWFQQRPGQSPKRLMYQVSKLDPGIPDRFSGSGSETDFTLKISRVEAEDLGVYYCLQATYYPQTFGGGTKLEIKR", "values": [{"measurement": "Kd", "value": 0.182, "unit": "nM"}]}
{"binder": "Mutation 1-1 (antibody, mouse IgG2b, kappa, V domains shown, Mutation 1 as framework) VH: EVQLQQSGPEVVKPGASVKISCKASGYTITDYYMNWVKQSHGKGLEWIGDINPIQGGTAYNQKFRDKATLTVDKSSNTAYMELRSLTSEDSALYYCTRGAEDYWGQGTTLTVSS VL: DVVLTQTPLSLSVTIGQPASISCKSSQSIIYSQGKIYLNWFQQRPGQSPKRLMYQISKLEPGIPDRFSGSGSETDFTLKISRVEAEDLGVYYCLQGTYYPQTFGGGTKLEIKR", "values": [{"measurement": "Kd", "value": 0.301, "unit": "nM"}]}
{"binder": "Mutation 1-2 (antibody, mouse IgG2b, kappa, V domains shown, Mutation 1 as framework) VH: EVQLQQSGPEVVKPGASVKISCKASGSTLTDYYMNWVKQSHGKGLEWIGDVNPIQGGTAYQQKFRDKATLTVDKSSNTAYMELRSLTSEDSALYYCTKGAEDYWGQGTTLTVSS VL: DVVLTQTPLSLSVTIGQPASISCKSSQSLLYSNGKIYLNWFQQRPGQSPKRLMYQLSKLDPGIPDRFSGSGSETDFTLKISRVEAEDLGVYYCLQATYTPQTFGGGTKLEIKR", "values": [{"measurement": "Kd", "value": 0.0903, "unit": "nM"}]}
{"binder": "Mutation 1-4 (antibody, mouse IgG2b, kappa, V domains shown, Mutation 1 as framework) VH: EVQLQQSGPEVVKPGASVKISCKASGYTLTDYYMNWVKQSHGKGLEWIGDINPINGGTAYQQKFRDKATLTVDKSSNTAYMELRSLTSEDSALYYCTKGAEDYWGQGTTLTVSS VL: DVVLTQTPLSLSVTIGQPASISCKSSQSILYSNGKIYLNWFQQRPGQSPKRLMYQVSKLDPGIPDRFSGSGSETDFTLKISRVEAEDLGVYYCLQATYYPQTFGGGTKLEIKR", "values": [{"measurement": "Kd", "value": 0.465, "unit": "nM"}]}
{"binder": "Mutation 1-5 (antibody, mouse IgG2b, kappa, V domains shown, Mutation 1 as framework) VH: EVQLQQSGPEVVKPGASVKISCKASGSTLTDYYMNWVKQSHGKGLEWIGDVNPINGGTAYNQKFRDKATLTVDKSSNTAYMELRSLTSEDSALYYCTRGAEDYWGQGTTLTVSS VL: DVVLTQTPLSLSVTIGQPASISCKSSQSILYSQGKIYLNWFQQRPGQSPKRLMYQVSKLEPGIPDRFSGSGSETDFTLKISRVEAEDLGVYYCLQGTYTPQTFGGGTKLEIKR", "values": [{"measurement": "Kd", "value": 0.125, "unit": "nM"}]}
{"binder": "Mutation 1-6 (antibody, mouse IgG2b, kappa, V domains shown, Mutation 1 as framework) VH: EVQLQQSGPEVVKPGASVKISCKASGYTITDYYMNWVKQSHGKGLEWIGDLNPIQGGTAYNQKFRDKATLTVDKSSNTAYMELRSLTSEDSALYYCTKGAEDYWGQGTTLTVSS VL: DVVLTQTPLSLSVTIGQPASISCKSSQSLIYSNGKIYLNWFQQRPGQSPKRLMYQISKLDPGIPDRFSGSGSETDFTLKISRVEAEDLGVYYCLQATYSPQTFGGGTKLEIKR", "values": [{"measurement": "Kd", "value": 0.415, "unit": "nM"}]}
{"binder": "Mutation 1-7 (antibody, mouse IgG2b, kappa, V domains shown, Mutation 1 as framework) VH: EVQLQQSGPEVVKPGASVKISCKASGYTITDYYMNWVKQSHGKGLEWIGDINPINGGTAYQQKFRDKATLTVDKSSNTAYMELRSLTSEDSALYYCTRGAEDYWGQGTTLTVSS VL: DVVLTQTPLSLSVTIGQPASISCKSSQSLIYSNGKIYLNWFQQRPGQSPKRLMYQISKLEPGIPDRFSGSGSETDFTLKISRVEAEDLGVYYCLQATYYPQTFGGGTKLEIKR", "values": [{"measurement": "Kd", "value": 0.329, "unit": "nM"}]}
